In US12163955B2, “Antibodies to methotrexate and uses thereof” (Ark Diagnostics, Inc., priority 2023, dated 2024):
“And” between values parts separate entries of the source, which are not always exact repeats. Equal values may be shown once. Blank lines part the entries; values can stand above or below the molecule they belong to.

Assay: Homogeneous enzyme immunoassay calibration curves with antibody clones and DAMP-Y-S-G6PDH conjugate
Type: biochemical
Protocol: MTX antibodies and enzyme conjugates may be advantageously used in accordance with the present disclosure in a homogeneous assay format to detect a MTX analyte in samples. Antibodies may be evaluated by known methods, such as, conjugate inhibition, conjugate modulation, calibration, cross-reactivity and spike-recovery. For these purposes, cloned antibodies (28H3-K1, 32H1-K2, 64H1-K1) is added into the antibody diluent to prepare the antibody reagent. The antibody reagent includes antibody as prepared above, buffer, salts, stabilizers, preservatives, NAD^+, and glucose-6-phosphate. Enzyme conjugate DAMP-Y-S-G6PDH is added into the conjugate diluent to prepare the enzyme conjugate reagent. The enzyme conjugate reagent includes the conjugate, buffer, stabilizers, salts, and preservatives.
A clinical chemistry analyzer useful to evaluate antibodies and enzyme conjugates in a homogeneous enzyme immunoassay format is the Beckman Coulter AU480 (Beckman Coulter, Brea, CA). The Beckman AU480 is an automated biochemistry spectrophotometer analyzer used by medical laboratories to process biological fluid specimens, such as urine, cerebrospinal fluid, oral fluids, plasma and serum. The analyzer is capable of maintaining a constant temperature, pipetting samples, mixing reagents, measuring light absorbance and timing the reaction accurately.
A homogeneous enzyme immunoassay is conducted using a liquid, ready-to-use, two reagent assay as described above. Typically, 2-15 μL MTX analyte-containing sample is incubated with 75-150 μL antibody reagent followed by the addition of the 50-100 μL enzyme conjugate reagent.
The assay is a homogeneous enzyme immunoassay technique used for the analysis of MTX in biological fluids. The assay is based on competition between MTX in the specimen and -MTX or MTX analog (DAMP derivatives of the current invention) labeled with the enzyme glucose-6-phosphate dehydrogenase (G6PDH) for antibody binding sites. Enzyme activity decreases upon binding to the antibody, so the drug concentration in the sample can be measured in terms of enzyme activity. Active enzyme converts nicotinamide adenine dinucleotide (NAD^+) to NADH, resulting in an absorbance change that is measured spectrophotometrically at 340 nm. […] The change in the absorbance at 340 nm can be measured spectrophotometrically and is proportional to the enzyme conjugate activity which in turn is related to analyte concentration (see FIG. 14).
MTX analyte antibodies and enzyme conjugate (DAMP-Y-S-G6PDH) were used in a homogeneous assay format to generate calibration curves using MTX standards as described in Example 12. Antibody reagents were prepared as described in Example 8 through 11 using DAMP-Y-KLH generated rabbit antibodies and cloned antibodies through B-cell. Enzyme conjugate DAMP-Y-S-G6PDH was used to prepare the conjugate reagent. A 6-point calibration curve was generated on the Beckman AU480 clinical chemistry analyzer as described in Examples 12. […]

[1] = antibody 200.0 μL/g, 0.00 to 0.05 μM
[2] = antibody 200.0 μL/g, 0.00 to 1.20 μM
[3] = antibody 200.0 μL/g, 0.05 to 0.15 μM
[4] = antibody 200.0 μL/g, 0.25 to 0.50 μM
[5] = antibody 200.0 μL/g, 0.50 to 1.20 μM
[6] = antibody 200.0 μL/g, Cals 0.00 μM
[7] = antibody 200.0 μL/g, Cals 0.05 μM
[8] = antibody 200.0 μL/g, Cals 0.15 μM
[9] = antibody 200.0 μL/g, Cals 0.50 μM
[10] = antibody 200.0 μL/g, Cals 1.20 μM
[11] = antibody 82.5 μL/g, Cals 0.00 μM
[12] = antibody 82.5 μL/g, Cals 0.05 μM
[13] = antibody 82.5 μL/g, Cals 0.15 μM
[14] = antibody 82.5 μL/g, Cals 0.50 μM
[15] = antibody 82.5 μL/g, Cals 1.20 μM
[16] = antibody 90.0 μL/g, Cals 0.00 μM
[17] = antibody 90.0 μL/g, Cals 0.05 μM
[18] = antibody 90.0 μL/g, Cals 0.15 μM
[19] = antibody 90.0 μL/g, Cals 0.50 μM
[20] = antibody 90.0 μL/g, Cals 1.20 μM
[21] = antibody 100.0 μL/g, Cals 0.00 μM
[22] = antibody 100.0 μL/g, Cals 0.05 μM
[23] = antibody 100.0 μL/g, Cals 0.15 μM
[24] = antibody 100.0 μL/g, Cals 0.50 μM
[25] = antibody 100.0 μL/g, Cals 1.20 μM

Separation [1]: 43.2 ΔmA/min.
Separation [2]: 157.5 ΔmA/min.
Separation [3]: 76.3 ΔmA/min.
Separation [4]: 0.2 ΔmA/min.
Separation [5]: 1.8 ΔmA/min.
Absorbance [6]: 0.4534 and 0.4555
Average Rate [6]: 454.45 mA/min
Absorbance [7]: 0.4989 and 0.4964
Average Rate [7]: 497.65 mA/min
Absorbance [8]: 0.5737 and 0.5742
Average Rate [8]: 573.95 mA/min
Absorbance [9]: 0.6112 and 0.6092
Average Rate [9]: 610.20 mA/min
Absorbance [10]: 0.6095 and 0.6144
Average Rate [10]: 611.95 mA/min
B1: 28H3/28K1: rabbit recombinant monoclonal antibody to MTX, VH SEQ ID NO: 1, VL SEQ ID NO: 5 (antibody)
VH: METGPRWLLLVAVLKGVQCQSLEESGGDLVKPGASLALTCKASGLDFSRSDHWICWVRQAPGKGLESIGCIYIGSGTFVRSGTTYYASWAKGRFTISKTSSTTVTLQMTSLTGADTATYFCARGFYATDGYGGPSYLNLWGQGTLVTVSSGQPKAPSVFPLAPCCGDTPSSTVTLGCLVKGYLPEPVTVTWNSGTLTNGVRTFPSVRQSSGLYSLSSVVSVTSSSQPVTCNVAHPATNTKVDKTVAPSTCSKPTCPPPELLGGPSVFIFPPKPKDTLMISRTPEVTCVVVDVSQDDPEVQFTWYINNEQVRTARPPLREQQFNSTIRVVSTLPITHQDWLRGKEFKCKVHNKALPAPIEKTISKARGQPLEPKVYTMGPPREELSSRSVSLTCMINGFYPSDISVEWEKNGKAEDNYKTTPAVLDSDGSYFLYNKLSVPTSEWQRGDVFTCSVMHEALHNHYTQKSISRSPGK
VL: MDTRAPTQLLGLLLLWLPGARCADIVMTQTPASVEAAVGGTVTIKCQASESISSYCSWFQQKPGQPPKLLIYRASTLESGVPSRFKGSGSGTQFTLTISDLECADAATYYCQSYAYSSPDSYGSTFGGGTEVVVKGDPVAPTVLIFPPAADQVATGTVTIVCVANKYFPDVTVTWEVDGTTQTTGIENSKTPQNSADCTYNLSSTLTLTSTQYNSHKEYTCKVTQGTTSVVQSFNRGDC

Separation (antibody 82.5 μL/g, 0.00 to 0.05 μM): 39.3 ΔmA/min.
Separation (antibody 82.5 μL/g, 0.00 to 1.20 μM): 256.1 ΔmA/min.
Separation (antibody 82.5 μL/g, 0.05 to 0.15 μM): 76.7 ΔmA/min.
Separation (antibody 82.5 μL/g, 0.25 to 0.50 μM): 55.8 ΔmA/min.
Separation (antibody 82.5 μL/g, 0.50 to 1.20 μM): 22.6 ΔmA/min.
Absorbance [11]: 0.3378 and 0.3384
Average Rate [11]: 338.10 mA/min
Absorbance [12]: 0.3775 and 0.3772
Average Rate [12]: 377.35 mA/min
Absorbance [13]: 0.4548 and 0.4533
Average Rate [13]: 454.05 mA/min
Absorbance [14]: 0.5708 and 0.5725
Average Rate [14]: 571.65 mA/min
Absorbance [15]: 0.5943 and 0.5941
Average Rate [15]: 594.20 mA/min
Separation (antibody 90.0 μL/g, 0.00 to 0.05 μM): 35.3 ΔmA/min.
Separation (antibody 90.0 μL/g, 0.00 to 1.20 μM): 256.5 ΔmA/min.
Separation (antibody 90.0 μL/g, 0.05 to 0.15 μM): 69.9 ΔmA/min.
Separation (antibody 90.0 μL/g, 0.25 to 0.50 μM): 60.8 ΔmA/min.
Separation (antibody 90.0 μL/g, 0.50 to 1.20 μM): 30.8 ΔmA/min.
Absorbance [16]: 0.3355 and 0.3373
Average Rate [16]: 336.40 mA/min
Absorbance [17]: 0.3723 and 0.3711
Average Rate [17]: 371.70 mA/min
Absorbance [18]: 0.4421 and 0.4412
Average Rate [18]: 441.65 mA/min
Absorbance [19]: 0.5624 and 0.5618
Average Rate [19]: 562.10 mA/min
Absorbance [20]: 0.5925 and 0.5933
Average Rate [20]: 592.90 mA/min
Separation (antibody 100.0 μL/g, 0.00 to 0.05 μM): 28.3 ΔmA/min.
Separation (antibody 100.0 μL/g, 0.00 to 1.20 μM): 250.1 ΔmA/min.
Separation (antibody 100.0 μL/g, 0.05 to 0.15 μM): 63.1 ΔmA/min.
Separation (antibody 100.0 μL/g, 0.25 to 0.50 μM): 72.9 ΔmA/min.
Separation (antibody 100.0 μL/g, 0.50 to 1.20 μM): 38.7 ΔmA/min.
Absorbance [21]: 0.3401 and 0.3411
Average Rate [21]: 340.60 mA/min
Absorbance [22]: 0.3679 and 0.3698
Average Rate [22]: 368.85 mA/min
Absorbance [23]: 0.4318 and 0.4320
Average Rate [23]: 431.90 mA/min
Absorbance [24]: 0.5529 and 0.5511
Average Rate [24]: 552.00 mA/min
Absorbance [25]: 0.5913 and 0.5901
Average Rate [25]: 590.70 mA/min
B2: 64H1/64K1: rabbit recombinant monoclonal antibody to MTX, VH SEQ ID NO: 17, VL SEQ ID NO: 21 (antibody)
VH: METGLRWLLLVAVLKGVQCQSLEESGGRLVTPGTPMTLTCTASGFSLVKYYMTWVRQAPGKGLEYIGVIWSGGMTYYASWAKGRFTISRTSTTVDLKIISPTTEDTATYFCARERDYFDGYIGNDIWGQGTLVTVSSGQPKAPSVFPLAPCCGDTPSSTVTLGCLVKGYLPEPVTVTWNSGTLTNGVRTFPSVRQSSGLYSLSSVVSVTSSSQPVTCNVAHPATNTKVDKTVAPSTCSKPTCPPPELLGGPSVFIFPPKPKDTLMISRTPEVTCVVVDVSQDDPEVQFTWYINNEQVRTARPPLREQQFNSTIRVVSTLPITHQDWLRGKEFKCKVHNKALPAPIEKTISKARGQPLEPKVYTMGPPREELSSRSVSLTCMINGFYPSDISVEWEKNGKAEDNYKTTPAVLDSDGSYFLYNKLSVPTSEWQRGDVFTCSVMHEALHNHYTQKSISRSPGK
VL: MDTRAPTQLLGLLLLWLPGATFAQVLTQTPSSVSAAVGGTVTINCQSSQSVWSRHLSWFQQKPGQPPKLLIYKASTLASGVPSRFSGSGSGTQFTLTISDVQCDDAATYYCLGGYTCIRDDCRAFGGGTEVVVKGDPVAPTVLIFPPAADQVATGTVTIVCVANKYFPDVTVTWEVDGTTQTTGIENSKTPQNSADCTYNLSSTLTLTSTQYNSHKEYTCKVTQGTTSVVQSFNRGDC

Separation [1]: 103.5 ΔmA/min.
Separation [2]: 209.7 ΔmA/min.
Separation [3]: 105.7 ΔmA/min.
Separation [4]: −0.9 ΔmA/min.
Separation [5]: 0.3 ΔmA/min.
Absorbance [6]: 0.4007 and 0.3982
Average Rate [6]: 399.45 mA/min
Absorbance [7]: 0.5023 and 0.5035
Average Rate [7]: 502.90 mA/min
Absorbance [8]: 0.6091 and 0.6080
Average Rate [8]: 608.55 mA/min
Absorbance [9]: 0.6084 and 0.6093
Average Rate [9]: 608.85 mA/min
Absorbance [10]: 0.6108 and 0.6075
Average Rate [10]: 609.15 mA/min
B3: 32H1/32K2: rabbit recombinant monoclonal antibody to MTX, VH SEQ ID NO: 9, VL SEQ ID NO: 13 (antibody)
VH: METGLRWLLLVAVLKGVQCQSLEESGGDLVKPGASLTLTCTASGLSFSSSDHWICWVRQAPGKGLESVGCIYIGSGTFVSSGTTYFASWAKGRSIISKTSSTTVTLQMTSLTAADTATYFCARGFYYTDGSGGPSYLNLWGQGTLVTVSSGQPKAPSVFPLAPCCGDTPSSTVTLGCLVKGYLPEPVTVTWNSGTLTNGVRTFPSVRQSSGLYSLSSVVSVTSSSQPVTCNVAHPATNTKVDKTVAPSTCSKPTCPPPELLGGPSVFIFPPKPKDTLMISRTPEVTCVVVDVSQDDPEVQFTWYINNEQVRTARPPLREQQFNSTIRVVSTLPITHQDWLRGKEFKCKVHNKALPAPIEKTISKARGQPLEPKVYTMGPPREELSSRSVSLTCMINGFYPSDISVEWEKNGKAEDNYKTTPAVLDSDGSYFLYNKLSVPTSEWQRGDVFTCSVMHEALHNHYTQKSISRSPGK
VL: MDTRAPTQLLGLLLLWLPGARCADIVMTQTPASVEAAVGGTVTIKCQASQTIYSYLSWFQQKPGQPPKLLIYSASTLASGVSSRFKGSRSGTESTLTISDLECADAATYYCQSYMYSSSSSFGSTFGGGTEVVVKGDPVAPTVLIFPPAADQVATGTVTIVCVANKYFPDVTVTWEVDGTTQTTGIENSKTPQNSADCTYNLSSTLTLTSTQYNSHKEYTCKVTQGTTSVVQSFNRGDC
